T1: human gp130 expressed endogenously on IMR-32/Stat3-luc cells (human, UniProt P40189 23-918)
T1 construct: whole, on cells
T1 sequence (looked up): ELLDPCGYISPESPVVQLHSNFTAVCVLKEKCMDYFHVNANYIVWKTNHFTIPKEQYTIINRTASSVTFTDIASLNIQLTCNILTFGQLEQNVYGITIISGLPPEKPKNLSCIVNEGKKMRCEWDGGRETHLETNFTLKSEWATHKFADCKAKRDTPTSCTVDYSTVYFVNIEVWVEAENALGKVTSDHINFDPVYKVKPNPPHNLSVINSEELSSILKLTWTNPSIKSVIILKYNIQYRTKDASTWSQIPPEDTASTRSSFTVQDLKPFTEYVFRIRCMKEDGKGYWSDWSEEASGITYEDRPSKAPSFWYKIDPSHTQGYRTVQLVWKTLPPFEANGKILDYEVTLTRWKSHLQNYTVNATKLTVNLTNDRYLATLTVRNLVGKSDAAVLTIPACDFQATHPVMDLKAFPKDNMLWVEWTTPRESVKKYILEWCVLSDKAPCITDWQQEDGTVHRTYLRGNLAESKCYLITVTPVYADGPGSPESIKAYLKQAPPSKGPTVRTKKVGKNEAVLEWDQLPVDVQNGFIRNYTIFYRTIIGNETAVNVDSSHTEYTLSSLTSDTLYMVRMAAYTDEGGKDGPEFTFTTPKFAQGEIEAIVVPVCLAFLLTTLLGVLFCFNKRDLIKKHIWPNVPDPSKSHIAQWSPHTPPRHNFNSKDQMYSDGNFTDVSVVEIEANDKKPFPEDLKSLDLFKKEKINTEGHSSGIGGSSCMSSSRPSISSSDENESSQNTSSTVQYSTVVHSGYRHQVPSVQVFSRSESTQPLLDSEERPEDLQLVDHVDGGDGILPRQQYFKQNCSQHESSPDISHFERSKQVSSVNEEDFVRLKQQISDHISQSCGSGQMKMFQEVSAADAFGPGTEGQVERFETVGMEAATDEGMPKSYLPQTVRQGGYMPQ

T2: full length (FL) human gp130 over-expressed on HEK293/Stat3-luc/gp130-2X Sort cells (human, UniProt P40189 23-918)
T2 construct: whole, on cells
T2 sequence (looked up): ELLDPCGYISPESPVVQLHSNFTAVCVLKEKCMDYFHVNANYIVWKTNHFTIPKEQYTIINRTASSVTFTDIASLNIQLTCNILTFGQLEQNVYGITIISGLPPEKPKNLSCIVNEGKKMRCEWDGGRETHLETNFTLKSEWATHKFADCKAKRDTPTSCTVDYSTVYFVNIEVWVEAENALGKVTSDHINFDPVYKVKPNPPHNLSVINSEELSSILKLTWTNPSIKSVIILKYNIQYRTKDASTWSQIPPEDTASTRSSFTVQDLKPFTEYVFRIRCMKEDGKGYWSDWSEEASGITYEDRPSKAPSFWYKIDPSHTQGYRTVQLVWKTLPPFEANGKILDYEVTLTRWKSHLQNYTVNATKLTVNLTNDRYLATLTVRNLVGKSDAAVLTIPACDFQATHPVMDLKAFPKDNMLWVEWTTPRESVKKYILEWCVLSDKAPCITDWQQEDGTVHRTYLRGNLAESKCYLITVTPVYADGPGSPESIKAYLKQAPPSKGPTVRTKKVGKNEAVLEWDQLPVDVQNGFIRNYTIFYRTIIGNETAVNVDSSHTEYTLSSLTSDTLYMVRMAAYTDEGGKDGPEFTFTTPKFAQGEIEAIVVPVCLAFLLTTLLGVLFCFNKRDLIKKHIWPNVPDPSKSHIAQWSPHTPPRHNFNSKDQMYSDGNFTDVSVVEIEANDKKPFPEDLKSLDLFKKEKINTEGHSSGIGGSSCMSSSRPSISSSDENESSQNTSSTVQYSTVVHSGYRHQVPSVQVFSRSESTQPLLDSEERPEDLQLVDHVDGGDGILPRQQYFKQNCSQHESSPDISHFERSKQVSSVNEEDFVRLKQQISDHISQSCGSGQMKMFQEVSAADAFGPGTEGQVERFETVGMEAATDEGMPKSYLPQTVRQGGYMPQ


Key:
[1] = molecular target: T1, human gp130 expressed endogenously on …; experiment: FACS, 10 nM mAb, IMR-32/Stat3-luc cells, competitor 1 uM hGP130.mmh
Description: (§1) In order to assess cell binding by anti-GP130 antibodies of the invention two cell lines were generated. One cell line generated was HEK293 cells stably over-expressing full length (FL) human gp130 (amino acids 1-918 of accession # P40189 with leucine at position 2 changed to valine, a natural variant) along with a luciferase reporter (Stat3-luciferase, Stat3-luc, SA Bioscience, #CLS-6028L). The cells were sorted twice using flow cytometry for high expression of gp130. It is known hereafter as HEK293/Stat3-luc/gp130-2X Sort. IMR-32 cells (human Neuroblastoma, ATCC), were also evaluated for cell binding as these cells express gp130 endogenously and were used for bioassays. The cells used for binding were generated to stably express a luciferase reporter (Stat3-luciferase, Stat3-luc, SA Bioscience, #CLS-6028L), and are referred to hereafter as IMR-32/STAT3-Luc cells.
(§2) For the FACS analysis, 10 nM of the antibodies were used to stain 0.5×10^6 cells/well of each cell type at 4° C. in PBS (without calcium and magnesium) containing 2% FBS for 30 minutes. IMR-32/STAT3-luc cells were incubated with 1 mg/mL mouse IgG for 30 minutes at 4° C. to block Fc receptors prior to adding the antibodies. To test whether the anti-gp130 antibody binding is specific for gp130 on the IMR-32 cells, antibodies were added to IMR-32/Stat3-luc cells with or without being pre-bound to 1000 nM of recombinant protein of the ecto-domain of human gp130 fused to myc-myc-his tag (hgp130.mmh) for 30 minutes at 25° C. […] Cells were fixed using BD CytoFix™ (Becton Dickinson, #554655) and analyzed on an IQue® (Intellicyt®) Flow Cytometer. Unstained and secondary antibody alone controls were also tested for all cell lines. The results were analyzed using ForeCyt® (IntelliCyt®) software to determine the geometric means of fluorescence for viable cells.

[2] = molecular target: T1, human gp130 expressed endogenously on …; experiment: FACS, 10 nM mAb, IMR-32/Stat3-luc cells, no hGP130.mmh
Description: as §1, §2

[3] = molecular target: T2, full length (FL) human gp130 …; experiment: FACS, 10 nM mAb, 293/Stat3-luc/GP130 2X sort cells
Description: as §1, §2

| Binder | MFI - Normalized to Unstained Control [1] | MFI - Normalized to Unstained Control [2] | MFI - Normalized to Unstained Control [3] |
| --- | --- | --- | --- |
| MAb16669 (antibody, V domains shown, Variable domains only) VH: EVQLVESGGGLVQPGGSLRLSCAASGFTFSSYAMNWVRQAPGKGLEWVSAISGSGDSTYYTDSVKGRFTISRDNSKNTLYLQMNTLRAEDTAVYYCAKEEIVMLVGATPGWFDPWGQGTLVTVSS VL: not shown | 5 | 6 | 53 |
| MAb16618 (antibody, V domains shown, Variable domains only) VH: QVQLQESGPGLVKPSETLSLTCTVSGGSISNYYWTWIRQPPGKGLEWIGHISNSGTTNYNPSLKSRVTISVDTSKNQFSLKLTSVTAADTAVYYCARLPLGIAAVDTDYYYYFGMDVWGQGTTVTVSS VL: not shown | 8 | 7 | 105 |
| MAb16683 (antibody, V domains shown, Variable domains only) VH: QVQLVESGGGLVKPGGSLRLSCAASGFTFSDYYMTWIRQTPGKGLDWVSYISSSGTNKYNADSVKGRFTISRDNAKNSLYLQMNSLRAEDTAVYYCVRDPPWGMDVWGQGTTVTVSS VL: not shown | 7 | 9 | 75 |
| MAb16665 (antibody, V domains shown, Variable domains only) VH: QVQLVESGGGVVQPGRSLRLACAASGFTFRSYGMHWVRQAPGKGLEWVAVIWYDGSNKYYTDSVKGRFTISRDNSKNTLYLQMNSLRAEDTAMYYCAIDKWATVTTYLFDYWGQGTLVTVSS VL: not shown | 6 | 5 | 55 |
| MAb16659 (antibody, V domains shown, Variable domains only) VH: QVQLVQSGPEVKKPGSSVKVSCKASGGTIDRNEITWVRQAPGQGLEWMGVIIPILGEAHYERKFQGRLTITMDESTSTAYMELSNLRSEDTAVYYCARERAARGYLDYWGQGTLVTVSS VL: not shown | 8 | 8 | 81 |
| MAb16623 (antibody, V domains shown, Variable domains only) VH: EVQLVESGGGLVQPGGSLRLSCAASGLTFSSYEMNWVRQAPGKGLEWVSHISSAGSTKYYADSVKGRFTISRDNAKNSLFLQMNSLRAEDTAIYYCAGYNYAYYYFGVDVWGQGTTVTVSS VL: not shown | 7 | 8 | 96 |
| MAb16676 (antibody, V domains shown, Variable domains only) VH: QVQLVQSGAEVMKPGASVKVSCRASGYTFSSYDINWVRQAPGQGLEWMGWISTATGNTNYPQKVQGRVTMTTDTSTNTAYMELRSLRSDDTAVYYCTREGNSKGWLDPWGQGTLVTVSS VL: not shown | 8 | 9 | 74 |
| MAb16656 (antibody, V domains shown, Variable domains only) VH: EVQLVESGGGLVQPGRSLRLSCAASGFTLDDFAMHWVRQAPGKGLEWVSGISWNSGNIGYADSVKGRFTISRDNARNSLYLQMNSLRAEDTALYYCTSGYYLYYAMDVWGQGTTVTVSS VL: not shown | 7 | 12 | 132 |
| MAb16614 (antibody, V domains shown, Variable domains only) VH: QVQLVESGGGVVQPGGSLRLSCAASGFTFSTYDIHWVRQAPGKGLEWVAVISFDGSNRNYGDSVKGRFTISRDNSDNTLFLEMNNLRFEDTAVYYCAKEGYGVDFQHWGQGTLVTVSS VL: not shown | 6 | 7 | 94 |
| MAb16637 (antibody, V domains shown, Variable domains only) VH: QVQLVQSGAEVKKPGASVKVSCKASGYTFTSLGISWVRQAPGQGLEWMGWISAYSGNRDYAQKFQGRVTMTTDTSTSTAYMELRSLRSDDTAVYYCARSLRFDYWGQGTLVTVSS VL: not shown | 7 | 9 | 121 |
| MAb16662 (antibody, V domains shown, Variable domains only) VH: EVQLVESGGGLVQPGGSLRLSCTASGFTFSNYAIFWVRQAPGKGLEYVSGISNNGVTKYYADSVRDRFTISRDNSRNTVSIQMDSLRTEDMAVYYCARENWGSDDGFDIWGQGTMVTVSS VL: not shown | 6 | 5 | 49 |
| MAb16673 (antibody, V domains shown, Variable domains only) VH: EVQLVQSGAEVKKPGESLKISCKGSGYSFTSYWIDWVRQMPGKGLEWMGIIYPDDSDTRYSPSFQGQVTMSVDKSISTAYLQWSSLKASDTAIYYCARHERGIVEAGTDYYYYYGMDVWGQGTTVTVSS VL: not shown | 7 | 10 | 107 |
| MAb16636 (antibody, V domains shown, Variable domains only) VH: QLQLQESGPGLVKPSETLSLICTVSGGSISSNNYYWGWIRQPPGKGLEWIGNLYGSGSTYYNPSLKSRVTISVDTSKNQFSLKLSFVTAADTAVYHCARWDTNGGAFDIWGQGTMVTVSS VL: not shown | 7 | 8 | 92 |
| MAb16622 (antibody, V domains shown, Variable domains only) VH: EVQLVESGGGVVRPGGSLRLSCTASGFTFDDYGMSWVRQAPGKGLEWVSGINWNGGRTEYADAVKGRFIISRDNAKNSLYLQMNSLRAEDTALYFCARTELRWDYWGQGTLVTVSS VL: not shown | 7 | 5 | 91 |
| MAb16682 (antibody, V domains shown, Variable domains only) VH: EVQLVESGGGLVQPGGSLRLSCAASGFTFSTYWMNWVRQAPGKGLEWVANIKEDGSEKYYVDSVKGRFTISRDNAKNSLYLQMNSLRAEDTAVYYCAREGFGVVTYIWGQGTMVTVSS VL: not shown | 8 | 6 | 80 |
| MAb16664 (antibody, V domains shown, Variable domains only) VH: QVQLVQSGTEVKKPGSSVKVSCKASGGTFSTYPINWVRQAPGQGLEWMGGIIPIFGTASYAQKFQGRVAITTDESTSTAYMELNSLRSEDTAVYYCARERPNWGSNDYWGQGTLVTVSS VL: not shown | 8 | 7 | 45 |
